{"source": "paper PMC2848857", "about": "“The Crystal Structure of PPIL1 Bound to Cyclosporine A Suggests a Binding Mode for a Linear Epitope of the SKIP Protein” (PLoS ONE, 2010)", "binders": {"B1": {"name": "peptide A12 of the SKIP peptide array (peptide, UniProt Q13573 60-79, looked up)", "peptide": "DGGAFPEIHVAQYPLDMGRK", "notes": "The limits fit the twelfth peptide of a scan that starts at residue 49 with a one amino acid offset; source: synthetic peptide, spotted on cellulose membrane"}}, "biological_target": "T1, GST-PPIL1 fusion protein (human, UniProt Q9Y3C6 1-166)", "T1 construct": "Peptidyl-prolyl isomerase like 1 (PPIL1), human, full length, cloned from a human cDNA library into pGEX-6P1; also called Recombinant GST-PPIL1; Peptidyl-prolyl isomerase like 1; source: E. coli Rosetta 2, glutathione-sepharose", "T1 sequence (looked up)": "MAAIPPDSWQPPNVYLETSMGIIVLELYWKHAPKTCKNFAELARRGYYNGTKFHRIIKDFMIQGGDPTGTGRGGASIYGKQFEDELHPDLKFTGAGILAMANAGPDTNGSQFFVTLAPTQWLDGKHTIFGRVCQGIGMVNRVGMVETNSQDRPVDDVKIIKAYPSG", "assay": "peptide or protein array; SKIP 20-mer peptides on cellulose membrane; GST-PPIL1 or GST alone at 40 µg/ml in blocking buffer (5% milk powder, 5% saccharose in TBS, pH 8.0), overnight at 4°C; detected with anti-GST antibody and chemiluminescence", "conditions": "both partners purified"}
{"binder": "B1", "values": [{"measurement": "binding result", "result": "binds"}]}
